Assay results published in the supplement of paper PMC10126150.
± gives the standard deviation of the averaged measurements.

These sequences were tested on ATP (assay: switch fluorescence ratio, 500 uM ATP over buffer (Cy3 cluster intensity, sum of 5 cycles each) (fold (ratio)); higher = stronger signal-on switching upon ATP binding; sequences stand for … in TCGTCGGCAGCGTCAGATGTGTATAAGAGACAGTTTTTTTTTTTTTTTTTTTTTTTTT…TC). Conditions: aptamer strand: ATP DNA aptamer (quencher-CACCTGGGGGAGTATTGCGGAGGAAGG + anchor), 100 nM annealed; ATP concentration: 500 uM.
How it was run: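 Imaging in selection buffer was followed by imaging after 15 min with 500 uM ATP at 22 °C, for Cy3-labelled switching-strand clusters annealed to 100 nM quencher-labelled ATP aptamer on a modified Illumina MiSeq flow-cell. Five of these buffer/ATP cycles ran, separated by NaOH stripping and re-annealing. The fluorescence ratio per cluster is summed target-cycle over summed buffer-cycle Cy3 intensity, averaged per switch-domain sequence; clusters outside 100-1000 RFU were removed.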
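Further: ATP exposure 15 min at 22 °C before imaging.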

Sequence	switch fluorescence ratio
GTGAGGGTTT	0.9758 ± 0.005
AGTTTCTTAG	1.015 ± 0.0019
ATTGGTGTCT	1.01 ± 0.034
AGGGGTGCGC	0.9894 ± 0.0055
ACAAACGCTG	1.28 ± 0.0027
CTCGGCCACT	2.26 ± 1.6
TATCAGGGG	1.11 ± 0.054
ATTCGGAGGG	0.984 ± 0.011
GATGAGGGCG	1.14 ± 0.23
TTAAAGAATT	1.003 ± 0.0084
TTGCGTACGG	1.01 ± 0.053
ATTGGTAGTT	0.9687 ± 0.0067
GTGGTTGGTA	1.02 ± 0.03
ATAGAAGAGA	0.985 ± 0.027
AATTTTCGGA	0.991 ± 0.013
GTAGGGGATC	1.04 ± 0.058
TTTGTCAGTT	0.956 ± 0.043
TCCAATTGGG	1.11 ± 0.09
GGGTCCCCGC	1.12 ± 0.056
GGTAATTCTG	0.9837 ± 0.0033
ATGCGAAGGT	1.04 ± 0.037
TAATTATGTG	0.986 ± 0.024
CGTGTAATTT	0.993 ± 0.016

Sequence	switch fluorescence ratio
CGGGTTTGTC	1 ± 0.035
TAATTGGTGG	1.01 ± 0.029
GGGGAATCGC	0.97 ± 0.055
GAGTGCCGGT	1.02 ± 0.023
GGTGAGAGGT	0.9696 ± 0.0055
AGGGCAGGGT	0.975 ± 0.018
TCGTTTAACA	0.9602 ± 0.0092
TATGTTTCGT	1.01 ± 0.041
TTACAGTCGT	1.03 ± 0.022
ACGGCTCAT	1.01 ± 0.037
GGATTTTTAT	0.999 ± 0.028
TTAACATGTG	0.9593 ± 0.0034
CGGAATAGTG	1.2 ± 0.039
AGAGAGCGAA	1.01 ± 0.022
TGTACTTCTT	1.24 ± 0.3
TATCGGTCCG	1.01 ± 0.024
TAGACTCGGT	0.993 ± 0.053
TTTATGCCGG	1.01 ± 0.029
GGTAGTAAGA	1.01 ± 0.047
TATCCCCCGG	1.95 ± 1.2
TGCGCTATGT	1.07 ± 0.022
CGCTACTTAT	1.12 ± 0.029
TTTAGGATCC	0.983 ± 0.022

Sequence	switch fluorescence ratio
GGTGTGTGAG	0.965 ± 0.01
TCCAAGGGAT	1.01 ± 0.012
AGTACGGTGG	0.985 ± 0.064
TAGATGGGGA	0.977 ± 0.035
ATGTGGATTC	1.02 ± 0.036
AAGAGGTGGA	1.028 ± 0.0098
GGAAACACAG	1.02 ± 0.035
AATCCGCTCT	1.2 ± 0.11
AAGGACGGGG	0.974 ± 0.011
GTAGGGGATA	1.02 ± 0.026
TATACATCTG	1.0055 ± 0.00054
TCGGTGACGG	1.01 ± 0.017
TTTGAGTTAA	0.994 ± 0.037
AATCGTATAG	0.9817 ± 0.0042
ACACGGGGCG	0.984 ± 0.066
GTTTAGATG	0.989 ± 0.022
AGTGTTTCTG	0.973 ± 0.049
CGGTCGGTTG	1.06 ± 0.022
TACCAGCCGA	1.06 ± 0.043
CCACTGGGTG	4.394 ± 0.031
CTAGGGAGGT	0.9701 ± 0.002
TATGTCATGT	1.02 ± 0.011
CGGTGGGGCA	1.1 ± 0.13

Sequence	switch fluorescence ratio
TTTAATGGGA	1.03 ± 0.05
ACCTTTACGT	1.17 ± 0.033
GAAGCTGAAT	1.01 ± 0.0029
ACCAGTAGAC	1.038 ± 0.0074
TGTCTTACCT	1.147 ± 0.0093
GGGCATAGGT	0.982 ± 0.018
TAAAATGTTA	0.985 ± 0.0063
GTTACTGTGC	1.08 ± 0.025
AGTGACAACA	1.007 ± 0.0021
AATTTGCGGC	0.982 ± 0.029
CCGGGTGAAG	1.07 ± 0.063
AATTATTGTT	0.996 ± 0.017
CCTGAGTTC	0.996 ± 0.031
AAACGGGTGC	1.27 ± 0.29
GCCAAAGGTG	1.72 ± 0.12
TAAAATGGAC	1.03 ± 0.028
AGGATGGTTC	0.9541 ± 0.0016
ATAAGTTGAT	1.01 ± 0.03
TTGCCTTCTT	1.03 ± 0.033
AGTGTGGATT	1.03 ± 0.015
AAGGTGCCTG	1.02 ± 0.064
TGACGGGGTG	1.01 ± 0.044
AATTAGGGGG	0.981 ± 0.064

Sequence	switch fluorescence ratio
TTGGTGTCTT	0.959 ± 0.011
CAAGTTGTAC	1.1 ± 0.019
GCATTGAAGC	0.995 ± 0.011
TTGGAAAGTT	1.01 ± 0.028
CTGCGTCGTT	0.9967 ± 0.004
ATTGATGTTC	0.99 ± 0.053
CATGGCAACC	1.158 ± 0.0094
GGACACATGC	1.1 ± 0.14
GTTTTACTGA	1.03 ± 0.021
GGGGATTCT	0.9936 ± 0.0094
ATTTGAGGTT	1.006 ± 0.005
GGGAGGAAAG	0.991 ± 0.017
AACCAATAGC	1.1 ± 0.035
AATTAAGTGT	0.969 ± 0.021
TCGGGGCCGG	0.964 ± 0.037
GACTTTTTGC	0.933 ± 0.055
CTGGTTTTCG	1 ± 0.021
GTTTGCATTT	0.981 ± 0.015
TTTGTTGGCT	0.972 ± 0.058
CCTCAATGGT	1.39 ± 0.045
TAAATCGTAG	0.991 ± 0.0099
ATGGGGGGCA	0.971 ± 0.025
GGTCGTCTGC	0.984 ± 0.018

Sequence	switch fluorescence ratio
TCCAACGTAT	1.493 ± 0.0064
TGAAGGCTTA	0.994 ± 0.024
ACGAGGGGGA	1.05 ± 0.016
ATTCCTTTTT	0.9996 ± 0.0094
GAAATACAAC	1.04 ± 0.028
TAGGTACTGG	1.04 ± 0.014
GATTTCATAG	1.02 ± 0.063
ACTGTAACGG	1.19 ± 0.034
CCGGTTATAA	1.278 ± 0.009
AGGATCGAGG	1.02 ± 0.028
GAATCTATTC	1.01 ± 0.061
TGGTTGGGGC	0.986 ± 0.023
GAATTTGTTA	1.026 ± 0.0059
CAGTTTTGGG	0.9713 ± 0.0016
GGTGGGCTAA	0.9827 ± 0.0057
ACCCGAGGTC	1.09 ± 0.015
GCTGGTGATC	1.02 ± 0.012
TTTTTGTACT	1.11 ± 0.083
GGCTATTGCG	0.995 ± 0.016
AATGTGGACG	0.988 ± 0.04
TTCCCTGAGA	0.977 ± 0.025
CGCATGGGCC	1.4 ± 0.019
TTTTGGCGGG	0.983 ± 0.022

Sequence	switch fluorescence ratio
GCGGACCCTC	1.03 ± 0.05
GCGCCAGTTT	0.992 ± 0.02
TGCCAATGAA	0.965 ± 0.02
AATGTTATCT	0.994 ± 0.057
TTCCCCCCAA	1.76 ± 0.74
GAATGCGGGC	0.99 ± 0.017
CATGTGCGTG	1 ± 0.022
GGCCGGGGGT	1.25 ± 0.4
CAAATCGTCG	0.957 ± 0.022
AGGCGGGCGA	1.02 ± 0.05
GGGGGGACTG	1.06 ± 0.077
GGATTCAGGC	0.981 ± 0.027
CTAAGGCGGG	1.013 ± 0.0072
ATTTCAATTT	1.01 ± 0.02
TTTGCACAGT	1.01 ± 0.021
AAGGCGACGT	0.994 ± 0.015
TTGTGTAGTT	1.01 ± 0.024
GAATTAGAAA	0.999 ± 0.014
CGGGGTGTGT	1.01 ± 0.023
